# B1: 69 (protein, listed as Microbacterium testaceum)
# chain: MATSTEGQDVTDVHAHLLMPGLHAEVERRVPDEVQAAADLELRRNGLASLQASGRMIGERFPRLTDVRARLAAMDEQGVDRQWVSPSPNHFYPWANEGLATWASGEANRLIAEHVALAPDRLVGLGVVPLQHPHLVVDALDDAVLGRGLAGVEISSFAGDVELSDERLESFWARAAELRAVVFLHPFGCSLDERLDRFYLSNTVGQPTENAVALSHLIFSGVLDRHPGLRLIAAHGGGYLPTAIGRSDRAWRVRPEARGCAHAPSTYLSKLWFDTVVHDERALRWLVEAAGADRVLLGSDFPFDMGLDDPVAFVRGAGLQDAEVSGILGGNAAELLRTRVHA
# B2: 70 (protein, listed as Alicyclobacillus acidocaldarius)
# chain: MAIEPNRAADVHTHFLPTEVLEFLKREPRIQVDLERRAPDKEPFLTVEGRWSFELKRMFVDFEAFASAYRQAGIGLALVSPLPQLFVYHLPAEMGAQVAEVYNDALRDVLAPHRERFRPLATLPLADPTAAARELERRMDEGFVGAIVGPGVGEALIGDEAFWPLWEVADARRAVLFLHPLLHADPRAARLMLPNLVGVPWETTLAAAHLVLSGLLDRYPGARVLLAHGGGFLPYQIGRIEQGYDVWPQVRGRLQDRPTAYLRRMFYDNVLWSDAALRCLIDVVGADRVLAGSDFPFDLSAWPPRPGADVSVLAGGSGREGRLS
# B3: 74 (protein, listed as Ramlibacter tataouinensis)
# chain: MATVIDVHTHMFTTKWLELLKKEGGQYNIQTRPDGQQEIFRGNTPVVIPQKGHFDWKLRIQHMDQAGIDVSVVSLTCPNVYWGGEDVSVRAAREANDNVAQAQTAYPDRIRWFASLPWEYMATVIDVHTHMFTTKWLELLKKEGGQYNIQTRPDGQQEIFRGNTPVVIPQKGHFDWKLRIQHMDQAGIDVSVVSLTCPNVYWGGEDVSVRAAREANDNVAQAQTAYPDRIRWFASLPWEYPQRAVEELERSCAQGAAGVMVLANVAGRSLTDPLFAPVWAEIDRRALPVLVHPTDPPGVDLMDMTKFDLSWSVGFMFDTTLAITRMIFEGFFDRYPNLRIIASHGGGTLPYLVGRFEKGDEVELASRRQMKRKPTDYLRHIHYDCITYNLGALQYLISVVGAGQVMFGTDWPHWVHDTRGAFANTAQLPQEQTRAVRGANAQRLFKL
# B4: 75 (protein, listed as Ectocarpus siliculosus)
# chain: MAKIDSYTHFACPAFMDHLEAESGHPMVFRGLFSSIPELSDIDLRIRYMDEHGIDVHCLVPLPWLECEPGLHADEGKALEACRIANDEMARVVARFPDRLIGVALIPTTTEQAMIQETTRAVKELGMAGVALFVGPTAKPPDMACFEGLYRTCEELGAVVWMHPCRPQSYADYDSYKGEGSKHQIWNTFGWIYDTSVAMVHIALAGVFRRYPGLKVVTHHHGAMVPFFTARFDTQRRNFQEVEGDDLLEDLRLFYCDTATFGESAANIQQAIDFFGKSQVLFGTDTPMDMGTRGMFTRTTIASVEALGAAPEDKESFYAGNVLDMLGERFAGISGARGAVAARPKGDSTRIAASL
# B5: 72 (protein)
# chain: MADCPCCVSPKRRRLLGSVSAIAAGMMAGLPALAAQPSTAAAGTGKPLSIDIHAHYYSESFLGLLGGEGKQFGGHFFRNDDSFTFQTPAGGLGPLPMKFIDVEQRVRDMDNSGVDVQAISLSVPMVYWADRTLNAKLARAWNTAASDVHRKHPTRFVVLATLPMLNANDAIDELEFAAGLPGVRGIYMGTNINNRDLDDPLFSPIFKRIEQLNLPIFLHPQQTVGGARLADFYLSNLLGNPFDTAIAASHLILGGVLDKYPALHFSLPHAGGALPILVGRIDAGWSMRSETKRVAQKPSSYLRRFSYDTISHSGPTLDFLIRNIGADRLVLGSDYCFDMGYEQPVRFLDRLALPDDQKRMVVGGNAARLLNL
# modifications: Cupriavidus necator
# B6: 77 (protein)
# chain: MALIDLHAHAPHPGYYNQHPHWGPFFERHEDGDVKLRVGDWILTLGSPERKALVRAGKGPTVEEYQARWADPKVRLAGMDAAGQNAQVVSVPSHCYMYWAEKEFSVPFATKVNDTFAEYCSAAPDRLMFWAHAALNAPEQAALELRRACTELGAKGLVAGGANFGGLEFDSPELDPVWKVLCDLDLPMFIHGYNQSVTWGKKANDDRYETTAIVGMQYDETRCFWNLVCGGVLDRFPGLKVYITHGGGYVPYQLGRLAQCNGNLDVAHNKKPVLEYLKNNFYFDVELHEVPMRQALIDIIGADRVLYGSNFGGSDAVRHDLTEGLRLSDDDLQKIRWKNACKLLHLDPAKIGEPAKKQAVSA
# modifications: Burkholderia xenovorans
# B7: 71 (protein, listed as Burkholderia dolosa)
# chain: MARAGHRAARTRQSRPGDRTMTCSCCMSAGRRRVLGAFAALAGAPKGPRAASAAQPAAASKPTRGDATARNRHSRALLPGKASASWSATKASGSGGAFAWDDTTFTFRTPAGGLGPLPMKFIDVDARLRDMDASGVDVQALSLSVPMAYWGDRPFNAKLARAWNTAASRVHVRAPDRFVVLATLPMLDATDAIDELERASELPGVRGVYMGTNIDNRDLDDPRFAPVFARIEQLGLPVFLHPQQTVGGARLGDFYLSNLLGNPFDTAIAASHLILGGVLDRHPALHFTLPHAGGALPILVGRLDAGWTVRAETRRLAHQPSGYLRRFSYDTVSHSGPVLNFLIENVGIDRLVLGSDYCFDMGYEQPVRFLDRLDLTPDERAMVIGGNAGRLLRI
# B8: 76 (protein, listed as Polymorphum gilvum)
# chain: MAKKIDIFNHIWPEPFFKALIAHIGEMTDITMRSGAVPMMTNLDRRFEVMDMFGPDYMQVLSLASPPLEKLADPAKALELSRIGSDSLAELCQRYPERFPAFIGTAPLSNPAAVVGECRRAIEDLGAAGMQIFTNVAGKPLDLAEFEPFFEYMASAGKPVWLHPARGEAFADYQTEKRSEYEIWWTFGWPYETSAAMARLVFSRMFDKYPGLKVITHHAGGMVPFFEGRVGPGWDQMGARTTDRDLAAVRKALKRPHLDYFKEFYADTASFGSRKAIEHAIEFFGEDRVLFASDAPFDPEGGPMYIRETMRCIDSLDLTDAQRRKIYHGNATALLGLSL
# B9: 73 (protein, listed as Sphaerobacter thermophilus)
# chain: MARIDAHAHAQPPEYLDALLASGRYESVRDAEGRIVVRERGSRFLTITPQMHHPEQRVAEMDEAGIDMQILSVTTPQVYFLQGQAAVDLARRCNDYLADIVRSYPTRFRALASVPLTADPDAAVREFVRCLDDLGMVGAIIGSNIDGRPIDDPAFDAFYAEADRRATTLFIHPMVPAGIEVMNPYALAPLVGFMFDTTLAVSRLIFSGFFERYPRVKVLVGHLGAAVPYLAGRLDIGWRSYSDCQGIPHPPTEYIRRLYLDTVSFHAPALRCALETVGPDRIVFGSDYPHVIGDVGGAIASIQQALPATTHDGVLGHTAAELFGVSA
# Test: 14C assay with IPTG-induced recombinant E. coli cells: 14CO2 captured from [14C]-carboxyl-labeled dicamba
# Details: dicamba decarboxylation activity of the protein of the given SEQ ID NO; High / Low / No
row,Molecule,Enzymatic Detection level
1,B1,No
2,B2,Low
3,B3,Low
4,B4,Low
5,B5,Low
6,B6,No
7,B7,Low
8,B8,No
9,B9,Low

# Same assay, conditions: induced recombinant E. coli cells, [14C]-carboxyl-labeled dicamba, 14CO2 capture
row,Molecule,Dicamba Decarboxylase Activity
1,B1,No
2,B2,Low
3,B3,Low
4,B4,Low
5,B5,Low
6,B6,No
7,B7,Low
8,B8,No
9,B9,Low

# Test: Saturation mutagenesis of SEQ ID NO:109: dicamba decarboxylation activity of point mutants (carbon dioxide released)
# Details: decarboxylation activity (carbon dioxide released) of point mutant compared with unmutated backbone protein; backbone SEQ ID NO: 109
row,Molecule,Fold Activity
1,B1,1.3
2,B2,1.7
3,B3,1.4
4,B4,1.7
5,B5,1.2
6,B6,1.3
7,B7,1.5
8,B8,1.1
9,B9,1.2
